The supplement of paper PMC10126150
± gives the standard deviation of the averaged measurements.
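Further: ATP exposure 15 min at 22 °C before imaging.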

What follows are sequences tested on ATP (assay: switch fluorescence ratio, 500 uM ATP over buffer (Cy3 cluster intensity, sum of 5 cycles each) (fold (ratio)); higher = stronger signal-on switching upon ATP binding; sequences stand for … in TCGTCGGCAGCGTCAGATGTGTATAAGAGACAGTTTTTTTTTTTTTTTTTTTTTTTTT…TC). Settings: aptamer strand: ATP DNA aptamer (quencher-CACCTGGGGGAGTATTGCGGAGGAAGG + anchor), 100 nM annealed; ATP concentration: 500 uM.
Summary of the method: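 Values give the fluorescence ratio for each switch-domain sequence, averaged from per-cluster ratios of summed target-cycle to summed buffer-cycle Cy3 intensity. The Cy3-labelled switching-strand clusters sat on a modified Illumina MiSeq flow-cell, were annealed to 100 nM quencher-labelled ATP aptamer, and were imaged in selection buffer, then after 15 min with 500 uM ATP at 22 °C. Five cycles ran with NaOH stripping and re-annealing between them, and clusters outside 100-1000 RFU were excluded.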
In the case of GGAAGCGTTC, the switch fluorescence ratio is reported as 1.03 ± 0.04.
GGAAGGCGGG was tested, and the switch fluorescence ratio was 1.11 ± 0.16.
GGAAGTGGGC was tested, and the switch fluorescence ratio was 1.0283 ± 0.00079.
Sequence GGAAGTTAGT has a switch fluorescence ratio of 0.98253 ± 0.00016.
In the case of GGAATAAAGT, the switch fluorescence ratio is reported as 0.996 ± 0.021.
In the case of GGAATACTAG, the switch fluorescence ratio is reported as 1.14 ± 0.053.
With GGAATACTTT the switch fluorescence ratio was 1.01 ± 0.028.
For GGAATAGAGT, the switch fluorescence ratio was 1.02 ± 0.021.
For GGAATCAGGG, the switch fluorescence ratio was 0.99 ± 0.07.
Sequence GGAATCCATG has a switch fluorescence ratio of 0.977 ± 0.0013.
GGAATGAAGT showed a switch fluorescence ratio of 1.07 ± 0.049.
GGAATGCCGG showed a switch fluorescence ratio of 1.02 ± 0.021.
In the case of GGAATGGTTT, the switch fluorescence ratio is reported as 0.987 ± 0.064.
Sequence GGAATGTAGG has a switch fluorescence ratio of 0.99 ± 0.027.
GGAATGTTGG was tested, and the switch fluorescence ratio was 0.991 ± 0.032.
For GGAATGTTTG, the switch fluorescence ratio was 0.977 ± 0.035.
Work on GGAATTAAAT yielded a switch fluorescence ratio of 0.985 ± 0.027.
GGAATTATGA showed a switch fluorescence ratio of 0.995 ± 0.024.
GGAATTATGT showed a switch fluorescence ratio of 1.02 ± 0.041.
Sequence GGAATTCGAT has a switch fluorescence ratio of 1.004 ± 0.006.
GGAATTGGCG showed a switch fluorescence ratio of 1.03 ± 0.023.
GGAATTGGGT gave a switch fluorescence ratio of 0.99 ± 0.044.
GGACAAGAGA showed a switch fluorescence ratio of 0.996 ± 0.038.
GGACAATATA showed a switch fluorescence ratio of 1.003 ± 0.0016.
GGACAGAGGT showed a switch fluorescence ratio of 1 ± 0.044.
In the case of GGACAGGGGT, the switch fluorescence ratio is reported as 1.03 ± 0.073.
Work on GGACATATTT yielded a switch fluorescence ratio of 1.03 ± 0.042.
Work on GGACATGGAC yielded a switch fluorescence ratio of 0.9775 ± 0.0044.
Work on GGACATGGGT yielded a switch fluorescence ratio of 1 ± 0.019.
Sequence GGACATTATA has a switch fluorescence ratio of 1.031 ± 0.0056.
GGACCAAGGT was tested, and the switch fluorescence ratio was 1.01 ± 0.014.
In the case of GGACGAGGTG, the switch fluorescence ratio is reported as 0.9756 ± 0.0049.
GGACGCCTTG showed a switch fluorescence ratio of 0.976 ± 0.029.
GGACGCCTTT showed a switch fluorescence ratio of 0.9753 ± 0.0077.
Work on GGACGCTATC yielded a switch fluorescence ratio of 3.89 ± 0.42.
Sequence GGACGGGTTA has a switch fluorescence ratio of 1 ± 0.016.
For GGACGGTATG, the switch fluorescence ratio was 1.02 ± 0.031.
In the case of GGACGTTTTG, the switch fluorescence ratio is reported as 0.98 ± 0.012.
Sequence GGACTAGGAG has a switch fluorescence ratio of 1.05 ± 0.012.
GGACTCCCAT gave a switch fluorescence ratio of 1.23 ± 0.074.
For GGACTTGCGA, the switch fluorescence ratio was 1.043 ± 0.0042.
GGACTTTAAG was tested, and the switch fluorescence ratio was 0.952 ± 0.046.
GGACTTTAAT showed a switch fluorescence ratio of 1 ± 0.017.
For GGAGAAAAGA, the switch fluorescence ratio was 0.9862 ± 0.0076.
GGAGAAATTT was tested, and the switch fluorescence ratio was 0.9816 ± 0.0062.
Work on GGAGAACTTA yielded a switch fluorescence ratio of 1.04 ± 0.051.
Sequence GGAGAAGGCG has a switch fluorescence ratio of 0.994 ± 0.053.
GGAGAAGGGA showed a switch fluorescence ratio of 0.973 ± 0.062.
For GGAGACGGGA, the switch fluorescence ratio was 1.06 ± 0.016.
GGAGAGGGGA was tested, and the switch fluorescence ratio was 0.982 ± 0.014.
GGAGAGTCCG showed a switch fluorescence ratio of 1.03 ± 0.036.
Work on GGAGATATGT yielded a switch fluorescence ratio of 0.987 ± 0.026.
In the case of GGAGATTGGG, the switch fluorescence ratio is reported as 0.9697 ± 0.0033.
GGAGATTGGT showed a switch fluorescence ratio of 0.983 ± 0.024.
Sequence GGAGATTTTG has a switch fluorescence ratio of 1 ± 0.042.
Sequence GGAGCACGTG has a switch fluorescence ratio of 1.12 ± 0.058.
With GGAGCATTTG the switch fluorescence ratio was 1.27 ± 0.039.
With GGAGCGGACG the switch fluorescence ratio was 1 ± 0.016.
With GGAGCTCGGG the switch fluorescence ratio was 0.975 ± 0.038.
For GGAGCTGCGT, the switch fluorescence ratio was 1.056 ± 0.0098.
Sequence GGAGGAGAGC has a switch fluorescence ratio of 0.994 ± 0.015.
Work on GGAGGAGGGC yielded a switch fluorescence ratio of 0.909 ± 0.043.
GGAGGCCAGC gave a switch fluorescence ratio of 1.05 ± 0.075.
With GGAGGCGTTT the switch fluorescence ratio was 0.996 ± 0.04.
GGAGGGAACT showed a switch fluorescence ratio of 1.2 ± 0.34.
With GGAGGGCAAA the switch fluorescence ratio was 1.01 ± 0.025.
Work on GGAGGGCACG yielded a switch fluorescence ratio of 0.967 ± 0.053.
With GGAGGGGCTG the switch fluorescence ratio was 1.02 ± 0.085.
GGAGGGGGCA showed a switch fluorescence ratio of 0.9654 ± 0.0011.
GGAGGTAAGG was tested, and the switch fluorescence ratio was 0.973 ± 0.025.
With GGAGGTGTGT the switch fluorescence ratio was 1.02 ± 0.021.
In the case of GGAGGTTGGG, the switch fluorescence ratio is reported as 0.958 ± 0.013.
For GGAGTAAAGA, the switch fluorescence ratio was 0.992 ± 0.037.
Sequence GGAGTACGG has a switch fluorescence ratio of 1.03 ± 0.028.
For GGAGTACGGC, the switch fluorescence ratio was 1.06 ± 0.052.
GGAGTATATC gave a switch fluorescence ratio of 1.08 ± 0.073.
Sequence GGAGTATTTT has a switch fluorescence ratio of 1.12 ± 0.29.
GGAGTCACTG gave a switch fluorescence ratio of 1.02 ± 0.017.
GGAGTCAGCG gave a switch fluorescence ratio of 0.977 ± 0.025.
GGAGTCATTT was tested, and the switch fluorescence ratio was 1 ± 0.014.
With GGAGTCGTTA the switch fluorescence ratio was 1 ± 0.041.
With GGAGTGAGCG the switch fluorescence ratio was 0.995 ± 0.036.
With GGAGTGAGGT the switch fluorescence ratio was 0.999 ± 0.03.
Sequence GGAGTGCAG has a switch fluorescence ratio of 0.964 ± 0.025.
GGAGTTGTTA showed a switch fluorescence ratio of 0.985 ± 0.013.
Sequence GGAGTTTTGA has a switch fluorescence ratio of 0.982 ± 0.02.
In the case of GGATAAGGGG, the switch fluorescence ratio is reported as 1.02 ± 0.039.
Work on GGATAAGGTT yielded a switch fluorescence ratio of 0.9871 ± 0.0022.
For GGATACTAGT, the switch fluorescence ratio was 1.04 ± 0.069.
Sequence GGATAGGGGG has a switch fluorescence ratio of 0.9963 ± 0.0012.
With GGATAGTCAG the switch fluorescence ratio was 0.984 ± 0.016.
Work on GGATATACTT yielded a switch fluorescence ratio of 1.03 ± 0.024.
Sequence GGATCATCGC has a switch fluorescence ratio of 1.027 ± 0.0065.
In the case of GGATCCATTC, the switch fluorescence ratio is reported as 0.972 ± 0.019.
Work on GGATCGGTCA yielded a switch fluorescence ratio of 1.016 ± 0.0089.
Sequence GGATCTTTTT has a switch fluorescence ratio of 1.03 ± 0.026.
Work on GGATGAAGGG yielded a switch fluorescence ratio of 0.981 ± 0.022.
Work on GGATGAGGCA yielded a switch fluorescence ratio of 1.02 ± 0.022.
GGATGAGTAT gave a switch fluorescence ratio of 1.02 ± 0.058.
Sequence GGATGATGCA has a switch fluorescence ratio of 1.03 ± 0.028.
